How the values were obtained:
[1] = Small-scale anaerobic C—H amination with purified enzymes, azide 1; format: biochemical
Procedure: Activities are presented in TTN. […] Yields and enantioselectivies determined by HPLC analysis. * (S−R)/(S+R). nd=not determined.
Enzymes used as purified catalysts were expressed as previously described (Lewis, J. C. et al., Proc. Natl. Acad. Sci. U.S.A. 106, 16550-16555 (2009)), and were purified by anion-exchange chromatography (for holoenzymes) or Ni-NTA chromatography (for isolated heme domains). Concentrations of P450 or P411 enzymes were determined as previously reported (Omura, T. & Sato, R., J. Biol. Chem. 239, 2370-2378 (1964); Vatsis, K. P. et al., J. Inorg. Biochem. 91, 542-553 (2002)). Small-scale reactions (400 μL) were conducted in 2 mL crimp vials containing degassed buffer (0.1 M potassium phosphate pH 8.0), enzyme (0.1-0.5% catalyst loading) and oxygen depletion system (10× stock solution containing 14,000 U/mL catalase, 1,000 U/mL glucose oxidase dissolved in 0.1 M KPi pH 8.0). Enzyme (P450 or P411) solution and oxygen depletion mixture were added to the vial with a small stir bar before crimp-sealing. […] Reactions were stirred at room temperature for 24 h under positive argon pressure.
Small-scale reactions (400 μL) were conducted in 2 mL crimp vials (Agilent Technologies, San Diego, Calif.) containing buffer (0.1 M potassium phosphate pH 8.0), enzyme (0.1-0.5% catalyst loading) and oxygen depletion system (10× stock solution containing 14,000 U/mL catalase, 1,000 U/mL glucose oxidase dissolved in 0.1 M KPi pH 8.0). Enzyme (P450 or P411) solution and oxygen depletion mixture were added to the vial with a small stir bar before crimp-sealing. […] In the meantime, the headspace of the sealed 2 mL reaction vial with the P450 solution was made anaerobic by flushing argon over the protein solution (with no bubbling). The buffer/reductant/glucose solution (270 μL) was syringed into the reaction vial with continuous argon purge of the vial headspace. An arylsulfonyl azide solution in DMSO (10 μL, 80 mM) was added to the reaction vial via a glass syringe, and the reaction was left stirring for 24 h at room temperature under positive argon pressure. […] Reactions were quenched by adding 30 μL 3 M HCl under argon. To the vials were then added acetonitrile (430 uL) and internal standard (o-toluenesulfonamide 10 mM in 50% acetonitrile 50% water, 1 mM final concentration). This mixture was then transferred to a microcentrifuge tube, and centrifuged at 17,000×g for 10 minutes. A portion (20 μL) of the supernatant was then analyzed by HPLC. For LC-MS analysis, the quenched reaction mixture was extracted twice with ethyl acetate (2×350 μL), dried under a light argon stream and resuspended in 50% water-acetonitrile (100 μL). For chiral HPLC the reactions were extracted as above with ethyl acetate, dried and resuspended in DMSO (100 μL) and then C18 purified as described above. The C18 purified material was dried, and resuspended in acetonitrile, and then injected onto the chiral HPLC system for analysis. Sultam formation was quantified comparison of integrated peak areas of internal standard and sultam at 220 nm to a calibration curve made using synthetically produced sultam and internal standard.
Purified enzymes were screened for activity in small scale reactions (400 μL) under anaerobic conditions as described above. Reactions were carried out using 0.5% mol of enzyme (10 μM) with respect to the triethylsulfonyl azide substrate 1 (2 mM). Standard reaction conditions described above were employed. Diethyl benzosultam product 3 (FIG. 18) was analyzed and quantified by reversed-phase HPLC (see above).
Small-scale reactions (400 μL total volume) were set up and worked up. Control reactions were performed with both the holoenzyme (BM3 with covalently linked reductase domain) and the isolated heme domain. […] Reactions of the complete system with heme domain (CS heme) included 2 mM Na2S2O4 rather than NADPH unless otherwise indicated in the table. […]

[2] = Whole-cell C—H amination of azide 1; format: cell-based, E. coli BL21(DE3); settings: intact E. coli cells
Procedure: Reaction conditions were as follows: 2 mM azide 1, 25 mM glucose, E. coli BL21(DE3) cells in M9-N minimal medium (OD600=30), 2.5% DMSO, oxygen depletion system (100 U ml^−1 glucose oxidase, 1400 U ml^−1 catalase) reacted for 24 hours under anaerobic conditions at 298 K. Yields determined by HPLC quantification.
(§1) Whole cell reactions used E. coli BL21(DE3) cells containing P450 or P411 catalysts, which were expressed and prepared as described elsewhere (Coelho, P. S. et al., Highly efficient carbene transfer to olefins catalyzed in vivo. Submitted (2013)). Following expression, cells were resuspended to an OD600 of 30 in M9 salts lacking NH4Cl (M9-N), and then degassed by sparging with argon in a sealed 6 mL crimp vial for at least 0.5 h. Separately, glucose (250 mM dissolved in 1×M9-N, 40 μL, or multiples thereof) was degassed by sparging with argon for at least five minutes. The oxygen quenching mixture was added to sealed 2 mL crimp vials containing stir bars and the headspace of the vials was purged with argon for five minutes at which time glucose, and then cells were added by syringe. Substrate (80 mM arylsulfonyl azide, 10 uL in DMSO) was added via syringe, and the reactions were stirred at room temperature for 24 h under positive argon pressure.
as §1, with “E.” for “Whole cell reactions used E.”, “catalysts” for “catalysts, which”, “Coelho,” for “(Coelho,”, “μL” for “uL”, “pressure. Reactions were quenched in a manner identical to reactions containing purified enzymes as described above. For chiral HPLC, the reactions were extracted and purified in an identical manner as for reactions that employed purified enzymes. Lyophilized intact cells containing sucrose as a cryoprotectant were prepared as described elsewhere (Coelho, P. S. et al., Highly efficient carbene transfer to olefins catalyzed in vivo. Submitted (2013)). The resulting cell powder, containing expressed ABC-CIS (26 mg) were added along with a stir bar to a 2 mL crimp vial and then sealed. The headspace of the vial was degassed, oxygen quenching system (40 μL) was added via syringe, followed by degassed glucose (250 mM, 40 μL), M9-N (310 μL), and finally substrate (80 mM 1, 10 μL). Lyophilized cell reactions were stirred for 24 h at room temperature, then quenched and analyzed as described above. […]” for “pressure.”
The preparative reaction was scaled up proportionally from small-scale reactions. E. coli BL21 cells containing ABC-CIS (OD600 30, 90 mL in M9-N) were sparged with argon for 45 minutes in a round bottom flask (250 mL) containing a stir bar. Separately, glucose solution (250 mM, 11.6 mL) was sparged with argon in a conical flask. The oxygen quenching mixture (10×, 11.6 mL) was degassed in a conical flask that was placed under high vacuum until slight foaming occurred (1-2 s) and then back-filled with argon; this sequence was repeated several times. Sparged glucose solution was then added to the anaerobic cell suspension via syringe, followed by the oxygen quenching system. Finally, substrate 1 (80 mM, 2.9 mL DMSO) was added dropwise via syringe, and the reaction was stirred for 24 h at room temperature. To quench the reaction, dilute HCl (3 M, 8.7 mL) and acetonitrile (125 mL) were added. […]

[3] = Intramolecular carbene C—H insertion, substrate 4.1a; format: biochemical; settings: 10 mM 4.1a, 10 uM P450, 10 mM Na2S2O4; product 4.2a
Procedure: Yield of product 4.22b was established after calibration with phenethyl alcohol as an internal standard. The reaction is not catalyzed by the WT-BM3 heme domain or hemin at 5% catalyst loading.
A representative procedure for P450-catalyzed C—H insertion is as follows: A vial containing WT-AxD (20 μL, 200 μM) was sealed with a teflon cap and the headspace of this vial was purged with argon for 5 min. Concurrently, a solution of sodium dithionite (11 mM in phosphate buffer pH=8) was degassed for a minimum of 5 min and 360 μL of this solution was transferred to the vial containing protein. The gas lines were disconnected from the vials. The substrate 4.1a or 4.1b was then added as a solution (20 μL, 200 mM). Final concentrations of all components were: 10 uM enzyme, 10 mM substrate, and 10 mM dithionite. […]
The mixture was extracted with 1 mL cyclohexane and analyzed by GC-MS or GC. GC-MS was performed on a Shimadzu TQ8030 GC-MS with ion count detector and J&W HP-5 column (30 m×0.32 mm, 0.25 μm film) using the following method: 90° C. (hold 2 min), 90-190° C. (20° C./min), and 190-230 (40° C./min)

[4] = OD600=30, 2 mM azide 1, 24 hours, anaerobic

B1: ABC: P450BM3 variant: C400S (protein, listed as Bacillus megaterium)
chain: TIKEMPQPKTFGELKNLPLLNTDKPVQALMKIADELGEIFKFEAPGRVTRYLSSQRLIKEACDESRFDKNLSQALKFVRDFAGDGLFTSWTHEKNWKKAHNILLPSFSQQAMKGYHAMMVDIAVQLVQKWERLNADEHIEVPEDMTRLTLDTIGLCGFNYRFNSFYRDQPHPFITSMVRALDEAMNKLQRANPDDPAYDENKRQFQEDIKVMNDLVDKIIADRKASGEQSDDLLTHMLNGKDPETGEPLDDENIRYQIITFLIAGHETTSGLLSFALYFLVKNPHVLQKAAEEAARVLVDPVPSYKQVKQLKYVGMVLNEALRLWPTAPAFSLYAKEDTVLGGEYPLEKGDELMVLIPQLHRDKTIWGDDVEEFRPERFENPSAIPQHAFKPFGNGQRASIGQQFALHEATLVLGMMLKHFDFEDHTNYELDIKETLTLKPEGFVVKAKSKKIPLGGIPSPSTEQSAKKVRKKAENAHNTPLLVLYGSNMGTAEGTARDLADIAMSKGFAPQVATLDSHAGNLPREGAVLIVTASYNGHPPDNAKQFVDWLDQASADEVKGVRYSVFGCGDKNWATTYQKVPAFIDETLAAKGAENIADRGEADASDDFEGTYEEWREHMWSDVAAYFNLDIENSEDNKSTLSLQFVDSAADMPLAKMHGAFSTNVVASKELQQPGSARSTRHLEIELPKEASYQEGDHLGVIPRNYEGIVNRVTARFGLDASQQIRLEAEEEKLAHLPLAKTVSVEELLQYVELQDPVTRTQLRAMAAKTVCPPHKVELEALLEKQAYKEQVLAKRLTMLELLEKYPACEMKFSEFIALLPSIRPRYYSISSSPRVDEKQASITVSVVSGEAWSGYGEYKGIASNYLAELQEGDTITCFISTPQSEFTLPKDPETPLIMVGPGTGVAPFRGFVQARKQLKEQGQSLGEAHLYFGCRSPHEDYLYQEELENAQSEGIITLHTAFSRMPNQPKTYVQHVMEQDGKKLIELLDQGAHFYICGDGSQMAPAVEATLMKSYADVHQVSEADARLWLQQLEEKGRYAKDVWAG
modifications: cytochrome P450NADPH-P-450 reductase precursor, cytochrome P450 (BM3), CYP102A1
notes: P450BM3 variant: C400S
TTN ([1]; 0.1 mol % catalyst loading (2 μM), 2 mM azide 1, 2 mM NADPH, benzosultam 3): 32 | % ee ([1]; 0.1 mol % catalyst loading, (S−R)/(S+R), benzosultam 3): 20% | TTN (C—H amination product 3) ([1]; catalyst loading 0.5 mol %, NADPH, anaerobic): 49 | Yield sulfonamide (%) [2, 4]: 80% | Yield sultam (%) [2, 4]: 6.7% | TTN ([2]; anaerobic, added glucose): 29 | % ee ([2]; (S − R)/(S + R)): 16%

B2: WT-AxH: WT heme domain + C400H (protein)
chain: TIKEMPQPKTFGELKNLPLLNTDKPVQALMKIADELGEIFKFEAPGRVTRYLSSQRLIKEACDESRFDKNLSQALKFVRDFAGDGLFTSWTHEKNWKKAHNILLPSFSQQAMKGYHAMMVDIAVQLVQKWERLNADEHIEVPEDMTRLTLDTIGLCGFNYRFNSFYRDQPHPFITSMVRALDEAMNKLQRANPDDPAYDENKRQFQEDIKVMNDLVDKIIADRKASGEQSDDLLTHMLNGKDPETGEPLDDENIRYQIITFLIAGHETTSGLLSFALYFLVKNPHVLQKAAEEAARVLVDPVPSYKQVKQLKYVGMVLNEALRLWPTAPAFSLYAKEDTVLGGEYPLEKGDELMVLIPQLHRDKTIWGDDVEEFRPERFENPSAIPQHAFKPFGNGQRAHIGQQFALHEATLVLGMMLKHFDFEDHTNYELDIKETLSLKPKGFVVKAKSKKIPLGGIPSPST
modifications: synthetic cytochrome P450-BM3 variant WT-AxH (heme)
notes: WT heme domain + C400H
Yield % [3]: 0%

Source: patent US20150267232A1, “IN VIVO AND IN VITRO CARBENE INSERTION AND NITRENE TRANSFER REACTIONS CATALYZED BY HEME ENZYMES” (California Institute of Technology, priority 2012, published 2015)
